Assay results reported in patent US11472844B2, “Peptidomimetics, method of synthesis and uses thereof” (priority 2017, dated 2022).

Test: Analytical gel filtration (size exclusion chromatography)
Assay type: physicochemical
Details: for relative masses estimated from standard proteins' elution volume: 10 μg/ml in 20 mM phosphate buffer; for relative masses estimated from standard proteins' elution volume / experimental Mr: 150 mM NaCl, pH7.4; for experimental Mr: 20 mM phosphate buffer; for oligomeric organization: phosphate buffer, vs theoretical MW
Procedure: Size Exclusion Chromatography. Gel filtration was performed using an Agilent 1100 system (Agilent Technologies; Palo Alto, Calif., USA) and monitored by absorbance at 280 nm. MUB40 peptides were solubilized in the gel filtration buffer (20 mM phosphate buffer, 150 mM NaCl, pH7.4) at a concentration of 10 μg/ml, 100 μg/ml, or 1 mg/ml), separately injected on a Yarra™ 3μ SEC-2000 300×7.8 mm column (Phenomenex, Le Pecq, France), and eluted at a 0.5 ml/min flow rate. The column was calibrated with a mixture of standards proteins (ribonuclease A, 13.7 kDa; carbonic anhydrase 29 kDa; ovalbumin 44 kDa; GE Healthcare) complemented with a custom synthetic peptide of our own library (peptide x, 5.1 kDa; Institut Pasteur). The logarithm of the molecular weights were plotted versus the corresponding partition coefficients (Kay=(Ve−Vo)/(Vc−Vo); Ve, elution volume; Vo, void volume; Vc, geometric column volume), giving log(Mr)=2,3108−2,2361Kav as a calibration curve equation.

In the case of “MUB40#2: overlapping 40-amino acid peptide covering the MUB70 sequence (CGYTDETIPYSTAEGIKKFEGDGYELFKDNFPAGEKFDNDD; MUB40-2 probe with Cysteine at N-terminal extremity)”, the “relative masses estimated from standard proteins' elution volume” value (from here on “relative masses estimated”) is reported as 22.0, the “experimental Mr” value is reported as 22.0 kDa and the oligomeric organization is reported as “tetramers”.

For “MUB40#3: overlapping 40-amino acid peptide covering the MUB70 sequence (CDQMLRQDDLDGYTDETIPYSTAEGIKKFEGDGYELFKDNF; MUB40-3 probe with Cysteine at N terminal extremity)”, the “relative masses estimated” value was 20.5, the “experimental Mr” value was 20.5 kDa and the oligomeric organization was “tetramers”.

For “MUB40#4: overlapping 40-amino acid peptide covering the MUB70 sequence (CVHVQYIDGETDQMLRQDDLDGYTDETIPYSTAEGIKKFEG; MUB40-4 probe with Cysteine at N terminal extremity)”, the “relative masses estimated” value was 20.4, the “experimental Mr” value was 20.4 kDa and the oligomeric organization was “tetramers”.
